Source: PMC10094722, “How Single Amino Acid Substitutions Can Disrupt a Protein Hetero-Dimer Interface: Computational and Experimental Studies of the LigAB Dioxygenase from Sphingobium sp. Strain SYK-6” (International Journal of Molecular Sciences, 2023)
Residue numbers refer to the chain shown, from its start. In names and notes the source's numbering stands. Several values for one entry are separate records, joined by “and”; a condition that tells them apart may be missing. Identical values can stand only once. One block for each binder: values may come before it.

Assays:
[1] = target: T1, LigA, alpha subunit of protocatechuate 4,5-dioxygenase (LigAB), wild-type (Sphingobium sp. strain SYK-6, UniProt P22635 1-139); test: pull-down; co-purification of untagged LigB with His6-LigA on HisPur Ni-NTA resin from lysate of co-expressing E. coli, aerobic; 50 mM HEPES, 300 mM NaCl, pH 8.0, imidazole step gradient (62.5, 125, 250 mM); fractions on SDS-PAGE, Coomassie, quantified with ImageQuant; conditions: partners not purified
T1 construct: Protocatechuate 4,5-dioxygenase alpha chain (LigA), Sphingobium sp. strain SYK-6; 17.711 kDa with the His6-tag; also called α subunit; source: E. coli BL21, pET15b, co-expressed with LigB; in lysate and purified (Ni-NTA); not shown: His6, N-terminal, kept
T1 sequence: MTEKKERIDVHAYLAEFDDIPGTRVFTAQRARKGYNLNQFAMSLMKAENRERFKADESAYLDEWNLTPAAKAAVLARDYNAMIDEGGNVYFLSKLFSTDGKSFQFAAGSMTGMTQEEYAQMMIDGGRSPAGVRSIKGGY

LigA F103A = target: T2, LigA F103A (Sphingobium sp. strain SYK-6, UniProt P22635 1-139, F103A); test: as above; conditions: partners not purified
T2 construct: Protocatechuate 4,5-dioxygenase alpha chain (LigA), Sphingobium sp. strain SYK-6, with F103A; Site-directed mutagenesis as described by Barry et al; also called F103α to alanine; source: E. coli BL21, pET15b, co-expressed with LigB; in lysate and purified (Ni-NTA); not shown: His6, N-terminal, kept
T2 sequence: T1 sequence with F103A

LigA F103V = target: T3, LigA F103V (Sphingobium sp. strain SYK-6, UniProt P22635 1-139, F103V); test: as above; conditions: partners not purified
T3 construct: Protocatechuate 4,5-dioxygenase alpha chain (LigA), Sphingobium sp. strain SYK-6, with F103V; Site-directed mutagenesis as described by Barry et al; source: E. coli BL21, pET15b, co-expressed with LigB; in lysate; not shown: His6, N-terminal, kept
T3 sequence: T1 sequence with F103V

LigA F103L = target: T4, LigA F103L (Sphingobium sp. strain SYK-6, UniProt P22635 1-139, F103L); test: as above; conditions: partners not purified
T4 construct: Protocatechuate 4,5-dioxygenase alpha chain (LigA), Sphingobium sp. strain SYK-6, with F103L; Site-directed mutagenesis as described by Barry et al; source: E. coli BL21, pET15b, co-expressed with LigB; in lysate; not shown: His6, N-terminal, kept
T4 sequence: T1 sequence with F103L

LigA F103S = target: T5, LigA F103S (Sphingobium sp. strain SYK-6, UniProt P22635 1-139, F103S); test: as above; conditions: partners not purified
T5 construct: Protocatechuate 4,5-dioxygenase alpha chain (LigA), Sphingobium sp. strain SYK-6, with F103S; Site-directed mutagenesis as described by Barry et al; source: E. coli BL21, pET15b, co-expressed with LigB; in lysate and purified (Ni-NTA); not shown: His6, N-terminal, kept
T5 sequence: T1 sequence with F103S

LigA F103T = target: T6, LigA F103T (Sphingobium sp. strain SYK-6, UniProt P22635 1-139, F103T); test: as above; conditions: partners not purified
T6 construct: Protocatechuate 4,5-dioxygenase alpha chain (LigA), Sphingobium sp. strain SYK-6, with F103T; Site-directed mutagenesis as described by Barry et al; source: E. coli BL21, pET15b, co-expressed with LigB; in lysate; not shown: His6, N-terminal, kept
T6 sequence: T1 sequence with F103T

LigA F103H = target: T7, LigA F103H (Sphingobium sp. strain SYK-6, UniProt P22635 1-139, F103H); test: as above; conditions: partners not purified
T7 construct: Protocatechuate 4,5-dioxygenase alpha chain (LigA), Sphingobium sp. strain SYK-6, with F103H; Site-directed mutagenesis as described by Barry et al; source: E. coli BL21, pET15b, co-expressed with LigB; in lysate; not shown: His6, N-terminal, kept
T7 sequence: T1 sequence with F103H

[2] = target: the molecule itself; test: native gel or EMSA; 10% native polyacrylamide gel of purified LigAB (wild-type, F103A, F103S), Coomassie stained, 6.25 to 50 ug protein per lane; masses calculated from the bands

- α:β ratio of abundances in elution fractions E3-1 to E3-5 [1]: 1.08
- β:α ratio of abundances in elution fractions E3-1 to E3-5 [1]: 0.928
- α:β ratio of abundances in elution fractions E3-1 to E3-5 (LigA F103A): 0.817
- β:α ratio of abundances in elution fractions E3-1 to E3-5 (LigA F103A): 1.22
- α:β ratio of abundances in elution fractions E3-1 to E3-5 (LigA F103V): 0.79
- β:α ratio of abundances in elution fractions E3-1 to E3-5 (LigA F103V): 1.27
- α:β ratio of abundances in elution fractions E3-1 to E3-5 (LigA F103L): 0.879
- β:α ratio of abundances in elution fractions E3-1 to E3-5 (LigA F103L): 1.14
- α:β ratio of abundances in elution fractions E3-1 to E3-5 (LigA F103S): 1.04
- β:α ratio of abundances in elution fractions E3-1 to E3-5 (LigA F103S): 0.959
- α:β ratio of abundances in elution fractions E3-1 to E3-5 (LigA F103T): 1.64
- β:α ratio of abundances in elution fractions E3-1 to E3-5 (LigA F103T): 0.608
- α:β ratio of abundances in elution fractions E3-1 to E3-5 (LigA F103H): 2.19
- β:α ratio of abundances in elution fractions E3-1 to E3-5 (LigA F103H): 0.456
B1: LigB, beta subunit of protocatechuate 4,5-dioxygenase (LigAB) (natural protein, Sphingobium sp. strain SYK-6)
chain: MARVTTGITSSHIPALGAAIQTGTSDNDYWGPVFKGYQPIRDWIKQPGNMPDVVILVYNDHASAFDMNIIPTFAIGCAETFKPADEGWGPRPVPDVKGHPDLAWHIAQSLILDEFDMTIMNQMDVDHGCTVPLSMIFGEPEEWPCKVIPFPVNVVTYPPPSGKRCFALGDSIRAAVESFPEDLNVHVWGTGGMSHQLQGPRAGLINKEFDLNFIDKLISDPEELSKMPHIQYLRESGSEGVELVMWLIMRGALPEKVRDLYTFYHIPASNTALGAMILQPEETAGTPLEPRKVMSGHSLAQA
notes: Protocatechuate 4,5-dioxygenase beta chain (LigB), Sphingobium sp. strain SYK-6; 33.292 kDa; untagged; also called β subunit; source: E. coli BL21, pET15b, co-expressed with His6-LigA (wild-type or mutant); in lysate and co-purified (Ni-NTA)

B2: LigAB α/β heterodimer, wild-type (protocatechuate 4,5-dioxygenase) (complex, Sphingobium sp. strain SYK-6)
chain 1: T1 sequence
chain 2: B1 chain
notes: Protocatechuate 4,5-dioxygenase alpha chain (LigA), Sphingobium sp. strain SYK-6; as m1; Protocatechuate 4,5-dioxygenase beta chain (LigB), Sphingobium sp. strain SYK-6; as m2; The heterodimer as the unit that associates with itself in the native gel; also called wild-type LigAB; WT-LigAB; source: E. coli BL21, pET15b, co-expressed, purified (Ni-NTA); not shown: His6, N-terminal, kept
- stoichiometry N [2]: 3

B3: LigAB α/β heterodimer with LigA F103A (complex, Sphingobium sp. strain SYK-6)
chain 1: T1 sequence with F103A
chain 2: B1 chain
notes: Protocatechuate 4,5-dioxygenase alpha chain (LigA), Sphingobium sp. strain SYK-6, with F103A; as m3; Protocatechuate 4,5-dioxygenase beta chain (LigB), Sphingobium sp. strain SYK-6; as m2; The heterodimer as the unit that associates with itself in the native gel; also called F103A mutant enzyme; source: E. coli BL21, pET15b, co-expressed, purified (Ni-NTA); not shown: His6, N-terminal, kept
- binding result [2]: binds

B4: LigAB α/β heterodimer with LigA F103S (complex, Sphingobium sp. strain SYK-6)
chain 1: T1 sequence with F103S
chain 2: B1 chain
notes: Protocatechuate 4,5-dioxygenase alpha chain (LigA), Sphingobium sp. strain SYK-6, with F103S; as m6; Protocatechuate 4,5-dioxygenase beta chain (LigB), Sphingobium sp. strain SYK-6; as m2; The heterodimer as the unit that associates with itself in the native gel; also called F103S variant; source: E. coli BL21, pET15b, co-expressed, purified (Ni-NTA); not shown: His6, N-terminal, kept
- stoichiometry N [2]: 3 and 6
